± gives the uncertainty stated by the source.
Test: amyloid nucleation score (Sup35N fusion, yeast selection) (log enrichment); library NNK1; higher = more nucleation; inactive = no reads after selection
How it was run: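 Growth for 7 days at 30°C on medium lacking adenine and uracil followed a 24-hour induction with 100 μM copper sulfate of psi-negative yeast expressing peptides of 20 random codons fused to Sup35N. Input and output plasmid inserts were sequenced with Illumina, and sequences with under 100 input reads were excluded. Nucleation score is the DiMSum log enrichment of output over input reads, centred on the mode score of non-aggregating sequences.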
DMVEMVHCSCF showed an amyloid nucleation score of 1.49 ± 0.21. ICLLLCLVWDGCIATISNGL gave an amyloid nucleation score of -1.39 ± 2.1. For YELTRIR, the amyloid nucleation score was 2.38 ± 0.17. With WLTNWFEPRWSLVMQSVRCP the amyloid nucleation score was -0.121 ± 0.44. In the case of CIWSSNLFSRSSTSDWRLDT, the amyloid nucleation score is reported as -0.109 ± 0.29. FIVHANWQSFYFLLRLMVF gave an amyloid nucleation score of -0.109 ± 1. WFFRLLAMSRRTEVAGTSPL gave an amyloid nucleation score of 0.941 ± 0.65. NDHNNLWVNFVGT gave an amyloid nucleation score of 0.575 ± 0.6. Work on NRCYMVYKFTV yielded an amyloid nucleation score of -0.01 ± 0.33. KSKIQDLCCPSRPVVGMVCL gave an amyloid nucleation score of 0.239 ± 0.43. GVADMAVRGQCSHYSVAWST gave an amyloid nucleation score of -1.07 ± 0.82. For VPYVRMNVR, the amyloid nucleation score was 2.24 ± 0.14. For PVCGFRRWKCLPN, the amyloid nucleation score was 0.318 ± 0.66. With SIRFMLYVRVKR the amyloid nucleation score was -0.234 ± 0.66. In the case of CLPQLTDQPPKFHRLQFFCV, the amyloid nucleation score is reported as 0.348 ± 0.4. Substance GGVISESTGYLRLIHRRWDG has an amyloid nucleation score of -0.751 ± 1.7. For AYCVH, the amyloid nucleation score was 0.202 ± 0.59. Substance FLLLTSMNPLEWTYGRFWGV has an amyloid nucleation score of -0.597 ± 0.72. With DLRFCNASYVLWISDFAHAV the amyloid nucleation score was -0.08 ± 0.41. With CLCMSC the amyloid nucleation score was 0.108 ± 0.43. For LTCRYLACCSLRSGRQMLVG, the amyloid nucleation score was -0.694 ± 1.2. With TTSWDYFGAKEIIRFVMVTC the amyloid nucleation score was -2.12 ± 2.7. For AEGCRIPGRQSYRYGDICPR, the amyloid nucleation score was -0.373 ± 0.39. CVLCDGYFKSERLLNGWVM gave an amyloid nucleation score of -0.641 ± 0.52. For RIRLVCHCPFSYRLAVPLSE, the amyloid nucleation score was 3.99 ± 0.1. With WVHMFMHDYNMRYTFSVYMC the amyloid nucleation score was “inactive”. With GQLSCLSFNVVTGRYKAIAF the amyloid nucleation score was 0.629 ± 0.38. For LVNYLICWT, the amyloid nucleation score was -0.078 ± 0.82. Work on LFGKRCGHGQCQDHWKAVCV yielded an amyloid nucleation score of -0.008 ± 0.61. Work on AWIDCVSTNTTLDIPSLGP yielded an amyloid nucleation score of 0.402 ± 0.24. Work on YSRISKRVSRKGQSRNCHSG yielded an amyloid nucleation score of -0.413 ± 0.52. For KNKPL, the amyloid nucleation score was 2.72 ± 0.15. MDTFSIMTYLAWQSNELLLI showed an amyloid nucleation score of 1.22 ± 0.23. For ADVATMSRGEKGASGGLK, the amyloid nucleation score was 0.508 ± 0.54. For NYYLVCCCKREQRLCTVGIT, the amyloid nucleation score was 6.831 ± 0.064. In the case of DYYLATCYLPYALNCLAFLN, the amyloid nucleation score is reported as -1.18 ± 0.97. In the case of HNFLLYVSSYSFFHRLFMLH, the amyloid nucleation score is reported as 0.149 ± 0.46. Substance LPWLPLKSRYALTAKFTCEP has an amyloid nucleation score of 0.261 ± 1.2. QFYHLYCHKIYCFRGEFRRR showed an amyloid nucleation score of 1.83 ± 0.46. In the case of EKLTKTYGTRFNKVKLFL, the amyloid nucleation score is reported as 0.294 ± 0.41. For VIFYTFMVRTITACCLKLWV, the amyloid nucleation score was “inactive”. CVFMRATLQK showed an amyloid nucleation score of 3.25 ± 0.15. In the case of VQETYGYLYRNNIDRGGHIN, the amyloid nucleation score is reported as 2.07 ± 0.56. YWDEIRCNSKNFDPCPFKAS gave an amyloid nucleation score of 0.54 ± 0.19. Substance NMGIKVLSKYNVIYYSAGTP has an amyloid nucleation score of 8.343 ± 0.048. Work on PLTNRNIKIHYDLLSDDKMV yielded an amyloid nucleation score of 0.602 ± 0.26. Substance LEALGYLWDKWAYYAMVMRS has an amyloid nucleation score of 0.836 ± 0.97. Work on DPLRMILVISFRMVRFIQWP yielded an amyloid nucleation score of 0.072 ± 0.32. In the case of DTYKSPKHYRRL, the amyloid nucleation score is reported as 0.608 ± 0.64. NLTANVLKVMSRHCNGFWIF gave an amyloid nucleation score of 0.29 ± 0.46. SKTEMSTTMFY gave an amyloid nucleation score of -0.037 ± 0.38. Substance CFFASVHPLCYRGVSGVGVF has an amyloid nucleation score of -1.28 ± 2.1. In the case of HHLTRTTPYPTSTWLAQLLS, the amyloid nucleation score is reported as 0.994 ± 0.63. In the case of GRKRYKRATHH, the amyloid nucleation score is reported as -0.593 ± 1.5. In the case of VDGRDKSFQSFYCKK, the amyloid nucleation score is reported as 0.236 ± 0.56. Substance YLFTYRRVTWGSTLQS has an amyloid nucleation score of 1.65 ± 0.48. With TTLPREYYHRRVSVG the amyloid nucleation score was 0.373 ± 0.43. In the case of ILVPYLIAFFMEYRSRLCRF, the amyloid nucleation score is reported as 0.254 ± 0.27. Work on RLASYHITVYRHTRSIVQ yielded an amyloid nucleation score of 0.612 ± 0.29. Work on MLYPNNKSVVLVVMELRPNA yielded an amyloid nucleation score of 0.648 ± 0.52. For ICFRSFRHGNYGLMRG, the amyloid nucleation score was 1.35 ± 0.9. Substance CNFMVSYRISFMLRLIQYYV has an amyloid nucleation score of -0.938 ± 0.31. Substance INGRTGILRRVGN has an amyloid nucleation score of -1.28 ± 0.75. NTTAWPVYFYLWFRKTGWPL showed an amyloid nucleation score of -0.371 ± 0.78. In the case of LAKATGHVVCMSRVRRPVGQ, the amyloid nucleation score is reported as “inactive”. CVVESMSIIMRRCSLS gave an amyloid nucleation score of -0.861 ± 0.42. VCKITDLAARCHSREFWESR showed an amyloid nucleation score of 0.253 ± 0.25. With KTCYTVFSRPYENWS the amyloid nucleation score was 0.625 ± 0.48. Substance VYATSSIKIAVPVLHQAVLP has an amyloid nucleation score of 3.14 ± 0.096. For WLTVITADSMAEGRQACRLP, the amyloid nucleation score was 0.132 ± 0.46. Substance NPWLSNFSCK has an amyloid nucleation score of 0.244 ± 0.47. Work on SWCSCQV yielded an amyloid nucleation score of 1.16 ± 0.6. Work on NPAEL yielded an amyloid nucleation score of 0.222 ± 0.54. Substance IELVNYFHYFRWVGLLDRRC has an amyloid nucleation score of -0.077 ± 0.38. RRIGIGYGLLCRAWAYLYVL showed an amyloid nucleation score of -0.477 ± 1.2. FVLGWQI gave an amyloid nucleation score of 1.63 ± 0.56. Work on MMFLTNCCFMVLNCYTCVRY yielded an amyloid nucleation score of 3.53 ± 0.066. QLRYKIVMHRQSEHKPSLLN showed an amyloid nucleation score of -0.855 ± 1.5. Substance YRSSGWRNTSSRAVLCCLDE has an amyloid nucleation score of -0.356 ± 0.38. With LLDRLRRTGLRRCYVSGEFP the amyloid nucleation score was 5.89 ± 0.084. AQQLLIGDDDLDTAVEFDDM showed an amyloid nucleation score of -0.509 ± 0.86. LDAGH gave an amyloid nucleation score of -1.56 ± 1.8. With FAMTNFRYDLPQTHPLPRAV the amyloid nucleation score was -0.679 ± 0.54. With CWTCTSRVEWSPV the amyloid nucleation score was -0.374 ± 0.74. Work on TVHTLSIFFSGRAFAANPFS yielded an amyloid nucleation score of 2.36 ± 0.16. Work on IQSPC yielded an amyloid nucleation score of -0.171 ± 0.23.

From the supplement of paper PMC12042874
